Results published in paper PMC4209464.

What was measured:
[1] = molecular target: Pyrococcus furiosus Chaperonin 60 with Ile138, with the last 22 amino acids deleted (PfCD) (Pyrococcus furiosus); assay: SEC
[2] = molecular target: Pyrococcus furiosus Chaperonin 60 with Ile138, with the last 22 amino acids deleted (PfCD) (Pyrococcus furiosus); assay: native gel or EMSA
[3] = molecular target: PfCD mutant Ile138His (Pyrococcus furiosus); assay: native gel or EMSA

stoichiometry N [1]	stoichiometry N [2]	stoichiometry N [3]	Substance
16	16		Pyrococcus furiosus Chaperonin 60 with Ile138, with the last 22 amino acids deleted (PfCD) (domain or fragment)
		16	PfCD mutant Ile138His (domain or fragment)
